Experimental findings from patent US20240066137A1, “NOVEL PROTEIN CONJUGATE, AND USE THEREOF FOR PREVENTING OR TREATING NONALCOHOLIC STEATOHEPATITIS, OBESITY AND DIABETES” (ONEGENE BIOTECHNOLOGY INC., priority 2020, published 2024) are described below.

Where two headings read alike, the source gives them in different places.

For the test, the target named is FGFR1/KLB (Homo sapiens, UniProt P11362+Q86Z14). Nature of the test: FGFR1/KLB functional assay (PathHunter). The class given is cell-based. As to the method: The cells were cultured to 70-80% full in a T-75 flask. The medium was removed and washed with 5 mL of the pre-warmed PBS. PBS was removed, and 2 mL of AssayComplete cell detachment reagent was added, and then incubated in an incubator at 37° C. and 5% CO2 for 3 minutes, and the attached cells were detached. It was mixed with 6 mL of AssayComplete cell plating 0 reagent, and the mixture was transferred to a 15 mL tube, centrifuged at 1,000 rpm for 3 minutes, and then again released in 5 mL of cell plating reagent. The number of cells was counted, and the concentration was allowed to be 500,000 cells/mL. It was transferred to a reservoir, and 40 μL per well was dispensed into a white 96-well half-area cell culture plate using a multi-channel pipette (20,000 cells/well). Only 40 μL of cell plating reagent was dispensed into the blank well. The cells were incubated in an incubator at 37° C. and 5% CO2 for 24 hours to allow to be attached.
10 μL of each of rhFGF21 (5×) and test sample (5×) prepared by 4-fold serial dilution was dispensed in duplicate and cultured at room temperature for 4 hours. 10 μL of AssayComplete cell plating 0 reagent was added to the control and blank wells. After the culture was completed, the medium was removed, and 50 μL of AssayComplete cell plating 0 reagent was added. 30 μL of Detection reagent was dispensed and reacted in a state where light was blocked at room temperature for 1 hour, and then the luminescence was measured with a plate reader.
The luminescence of the sample in the plate was measured with a Synergy Neo2 instrument.
The Delta RLU (relative luminescence unit) (ΔRLU) was calculated as follows.
ΔRLU=RLUsample−RLUblank=Signal−background luminescence
In addition, the fold induction relative to the control group was calculated as follows.
The EC50 values were obtained based on fold induction values by each concentration using GraphPad Prism 8, as follows (curve-fitting of the log (agonist) vs. normalized response−variable slope equation).
In order to test the activity levels of the native FGF21 and the FGF21 analogue at the cellular level (in vitro), the FGFR1/KLB functional assay was performed in the same manner as in Test Example 2.

FGFR1/KLB, sequence (P11362 22-822): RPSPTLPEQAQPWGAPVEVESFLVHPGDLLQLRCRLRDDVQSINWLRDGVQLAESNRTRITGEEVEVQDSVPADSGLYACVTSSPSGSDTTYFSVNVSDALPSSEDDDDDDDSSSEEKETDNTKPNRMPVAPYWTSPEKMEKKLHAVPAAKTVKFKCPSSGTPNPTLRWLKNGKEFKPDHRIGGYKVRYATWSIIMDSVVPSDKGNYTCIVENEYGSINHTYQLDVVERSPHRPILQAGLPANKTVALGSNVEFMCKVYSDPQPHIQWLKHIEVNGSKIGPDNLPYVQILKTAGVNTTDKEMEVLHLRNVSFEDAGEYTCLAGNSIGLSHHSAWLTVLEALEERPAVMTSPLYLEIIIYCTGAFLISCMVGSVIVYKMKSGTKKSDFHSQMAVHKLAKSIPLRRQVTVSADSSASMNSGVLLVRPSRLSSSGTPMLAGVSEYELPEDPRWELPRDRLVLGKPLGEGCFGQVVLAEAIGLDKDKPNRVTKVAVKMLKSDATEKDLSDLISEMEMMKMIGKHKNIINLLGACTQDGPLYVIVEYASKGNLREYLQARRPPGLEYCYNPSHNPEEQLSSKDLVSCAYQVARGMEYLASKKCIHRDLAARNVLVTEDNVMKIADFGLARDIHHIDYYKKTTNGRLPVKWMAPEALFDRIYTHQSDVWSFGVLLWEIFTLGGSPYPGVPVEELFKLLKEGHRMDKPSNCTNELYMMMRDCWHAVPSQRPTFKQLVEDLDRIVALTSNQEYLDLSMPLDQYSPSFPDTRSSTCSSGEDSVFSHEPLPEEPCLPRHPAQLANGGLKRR
FGFR1/KLB, sequence (Q86Z14 whole entry): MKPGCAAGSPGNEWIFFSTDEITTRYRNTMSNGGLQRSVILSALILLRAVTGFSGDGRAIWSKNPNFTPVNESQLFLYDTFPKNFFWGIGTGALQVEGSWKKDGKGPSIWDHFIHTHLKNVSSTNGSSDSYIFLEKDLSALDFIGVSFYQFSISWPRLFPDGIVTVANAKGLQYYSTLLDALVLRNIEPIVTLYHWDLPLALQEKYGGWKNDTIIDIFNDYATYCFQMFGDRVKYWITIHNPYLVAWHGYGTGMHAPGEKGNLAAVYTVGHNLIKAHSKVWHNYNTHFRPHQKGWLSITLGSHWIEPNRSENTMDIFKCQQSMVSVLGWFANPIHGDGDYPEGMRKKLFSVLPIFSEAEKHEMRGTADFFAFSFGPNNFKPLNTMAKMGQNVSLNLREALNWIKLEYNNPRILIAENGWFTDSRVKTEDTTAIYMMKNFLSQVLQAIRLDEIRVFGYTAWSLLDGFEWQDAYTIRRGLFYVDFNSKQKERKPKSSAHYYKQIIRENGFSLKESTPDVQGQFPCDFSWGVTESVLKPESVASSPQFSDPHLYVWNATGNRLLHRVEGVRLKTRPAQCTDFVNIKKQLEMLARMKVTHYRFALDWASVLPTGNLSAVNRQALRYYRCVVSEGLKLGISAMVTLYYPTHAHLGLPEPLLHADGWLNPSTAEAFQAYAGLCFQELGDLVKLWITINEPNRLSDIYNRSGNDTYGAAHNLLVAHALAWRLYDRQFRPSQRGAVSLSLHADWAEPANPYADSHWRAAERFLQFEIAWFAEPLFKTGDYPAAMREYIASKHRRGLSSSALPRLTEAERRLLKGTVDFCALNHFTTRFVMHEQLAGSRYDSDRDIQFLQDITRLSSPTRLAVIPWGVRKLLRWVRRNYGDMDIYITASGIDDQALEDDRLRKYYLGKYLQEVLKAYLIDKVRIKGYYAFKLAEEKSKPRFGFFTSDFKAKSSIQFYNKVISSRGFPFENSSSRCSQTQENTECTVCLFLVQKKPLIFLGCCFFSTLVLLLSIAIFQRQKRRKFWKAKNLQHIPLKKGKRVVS

B1: rhFGF21: native FGF21, SEQ ID NO: 17 (protein)
chain: HPIPDSSPLLQFGGQVRQRYLYTDDAQQTEAHLEIREDGTVGGAADQSPESLLQLKALKPGVIQILGVKTSRFLCQRPDGALYGSLHFDPEACSFRELLLEDGYNVYQSEAHGLPLHLPGNKSPHRDPAPRGPARFLPLPGLPPALPEPPGILAPQPPDVGSSDPLSMVGPSQGRSPSYAS
modifications: FGF21 native
The EC50 is the concentration at which the effect is half-maximal. In the case of B1, the EC50 was 0.82 nM (Test Example 2, mean of 2 runs, read-out: EC50, Mean); 0.75 nM (Test Example 2, run 1, read-out: EC50, 1); 0.88 nM (Test Example 2, run 2, read-out: EC50, 2); 1.17 ± 0.56 nM (Test Example 9 screening, read-out: EC50).
